Reference: patent US20190077860A1 (EISAI R AND D MANAGEMENT, published 2019)
Residue numbers refer to the chain shown, from its start. Names may count otherwise.

T1: human EphA1 extracellular region-SEAP-His protein (human, UniProt P21709 26-547)
T1 construct: extracellular domain; also called hEphA1-SEAP-His
T1 sequence (looked up): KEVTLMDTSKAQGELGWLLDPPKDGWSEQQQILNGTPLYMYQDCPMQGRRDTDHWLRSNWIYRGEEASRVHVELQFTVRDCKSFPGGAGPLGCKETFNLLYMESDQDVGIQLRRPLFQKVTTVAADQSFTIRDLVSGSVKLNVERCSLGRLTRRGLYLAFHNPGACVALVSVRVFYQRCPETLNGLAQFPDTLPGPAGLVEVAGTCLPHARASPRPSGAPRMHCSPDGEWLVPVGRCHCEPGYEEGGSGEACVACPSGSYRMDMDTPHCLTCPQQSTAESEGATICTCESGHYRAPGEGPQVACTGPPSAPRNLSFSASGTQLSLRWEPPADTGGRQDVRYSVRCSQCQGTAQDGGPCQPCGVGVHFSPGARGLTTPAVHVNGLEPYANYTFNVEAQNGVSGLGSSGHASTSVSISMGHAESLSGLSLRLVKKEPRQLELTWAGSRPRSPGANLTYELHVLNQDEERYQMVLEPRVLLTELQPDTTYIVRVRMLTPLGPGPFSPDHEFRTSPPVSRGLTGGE

T2: human EphA7 extracellular region-SEAP-His protein (human, UniProt Q15375 28-555)
T2 construct: extracellular domain; also called hEphA7-SEAP-His
T2 sequence (looked up): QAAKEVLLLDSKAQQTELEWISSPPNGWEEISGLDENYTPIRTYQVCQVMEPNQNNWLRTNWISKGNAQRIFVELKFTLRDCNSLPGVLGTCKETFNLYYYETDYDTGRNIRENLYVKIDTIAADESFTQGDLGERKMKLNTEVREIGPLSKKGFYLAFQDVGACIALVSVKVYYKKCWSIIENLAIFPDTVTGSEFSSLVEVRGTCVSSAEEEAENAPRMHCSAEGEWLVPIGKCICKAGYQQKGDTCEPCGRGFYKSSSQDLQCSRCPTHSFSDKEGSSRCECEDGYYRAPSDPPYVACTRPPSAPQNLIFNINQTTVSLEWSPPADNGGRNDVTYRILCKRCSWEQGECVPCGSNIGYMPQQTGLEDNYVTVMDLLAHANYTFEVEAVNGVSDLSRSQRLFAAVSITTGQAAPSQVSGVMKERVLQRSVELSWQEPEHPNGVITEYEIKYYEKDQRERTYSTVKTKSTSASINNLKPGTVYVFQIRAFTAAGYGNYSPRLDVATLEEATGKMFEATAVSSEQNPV

T3: human EphA10 extracellular region-SEAP-His protein (human, UniProt Q5JZY3 34-565)
T3 construct: extracellular domain; also called hEphA10-SEAP-His
T3 sequence (looked up): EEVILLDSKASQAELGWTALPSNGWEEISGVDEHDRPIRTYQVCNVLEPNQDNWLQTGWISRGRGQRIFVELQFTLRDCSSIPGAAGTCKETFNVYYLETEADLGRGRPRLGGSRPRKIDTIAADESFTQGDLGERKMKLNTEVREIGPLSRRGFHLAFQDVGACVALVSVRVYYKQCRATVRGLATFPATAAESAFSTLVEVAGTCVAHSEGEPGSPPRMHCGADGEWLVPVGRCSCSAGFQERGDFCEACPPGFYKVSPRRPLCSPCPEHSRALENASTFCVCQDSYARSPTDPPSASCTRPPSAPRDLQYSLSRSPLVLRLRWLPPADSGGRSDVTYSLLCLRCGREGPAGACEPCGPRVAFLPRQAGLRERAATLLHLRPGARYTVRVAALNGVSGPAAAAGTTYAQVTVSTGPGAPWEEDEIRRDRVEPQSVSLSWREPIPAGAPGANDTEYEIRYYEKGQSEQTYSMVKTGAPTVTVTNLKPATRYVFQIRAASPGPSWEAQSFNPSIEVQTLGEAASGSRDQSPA

T4: human EphB6 extracellular region-SEAP-His protein (human, UniProt O15197 32-594)
T4 construct: extracellular domain; also called hEphB6-SEAP-His
T4 sequence (looked up): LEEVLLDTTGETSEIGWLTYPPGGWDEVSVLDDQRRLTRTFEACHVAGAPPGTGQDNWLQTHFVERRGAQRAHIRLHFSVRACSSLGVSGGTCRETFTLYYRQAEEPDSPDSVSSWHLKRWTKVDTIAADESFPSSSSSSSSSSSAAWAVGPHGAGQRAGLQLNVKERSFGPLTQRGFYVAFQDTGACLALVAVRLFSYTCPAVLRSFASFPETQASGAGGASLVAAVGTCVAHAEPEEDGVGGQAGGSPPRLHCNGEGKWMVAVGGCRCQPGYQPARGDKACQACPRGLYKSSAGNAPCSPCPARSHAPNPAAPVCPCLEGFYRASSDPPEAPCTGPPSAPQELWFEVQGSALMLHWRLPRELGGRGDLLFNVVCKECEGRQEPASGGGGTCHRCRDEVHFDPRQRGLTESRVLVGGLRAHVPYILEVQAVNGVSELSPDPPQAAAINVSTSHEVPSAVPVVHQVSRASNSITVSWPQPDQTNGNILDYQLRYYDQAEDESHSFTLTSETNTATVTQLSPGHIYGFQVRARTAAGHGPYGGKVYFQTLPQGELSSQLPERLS

B1: humanized antibody No. 76 (antibody, human IgG1, kappa)
heavy: QVQLVQSGSELKKPGASVKVSCKASGYTFTDYSMHWVRQAPGQGLKWMGWINTETGEPTYAQGFTGRFVFSLDTSVSTAYLQISSLKAEDTAVYYCARIPLYYYGSRYWYFDVWGQGTTVTVSSASTKGPSVFPLAPSSKSTSGGTAALGCLVKDYFPEPVTVSWNSGALTSGVHTFPAVLQSSGLYSLSSVVTVPSSSLGTQTYICNVNHKPSNTKVDKRVEPKSCDKTHTCPPCPAPPAAAPSVFLFPPKPKDTLMISRTPEVTCVVVDVSHEDPEVQFNWYVDGVEVHNAKTKPREEQFNSTFRVVSVLTVVHQDWLNGKEYKCKVSNKGLPAPIEKTISKTKGQPREPQVYTLPPSREEMTKNQVSLTCLVKGFYPSDIAVEWESNGQPENNYKTTPPMLDSDGSFFLYSKLTVDKSRWQQGNVFSCSVMHEALHNHYTQKSLSLSPG
light: DIQMTQSPSSLSASVGDRVTITCRASENIYRNLAWYQQKPGKAPKLLVYAATNLADGVPSRFSGSGSGTDYTLTISSLQPEDFATYYCQHFWGTPWTFGQGTKVEIKRTVAAPSVFIFPPSDEQLKSGTASVVCLLNNFYPREAKVQWKVDNALQSGNSQESVTEQDSKDSTYSLSSTLTLSKADYEKHKVYACEVTHQGLSSPVTKSFNRGEC
notes: human Ig kappa; also called L1-4/HA2
B2: humanized antibody No. 67 (antibody, human IgG1, kappa)
heavy: B1 heavy with V2I
light: B1 light
notes: human Ig kappa; also called L1-4/HA4
B3: humanized antibody No. 69 (antibody, human IgG1, kappa)
heavy: B1 heavy with V2I, Q62D, G63D, T65K
light: B1 light
notes: human Ig kappa; also called L1-4/HK4
B4: humanized antibody No. 75 (antibody, human IgG1, kappa)
heavy: B1 heavy with K46E
light: B1 light
notes: constant region: human IgG1 CH1 and hinge, human IgG2 CH2 and CH3 with V234A, G237A, no C-terminal Lys; human Ig kappa; also called L1-4/HA1
B5: humanized antibody No. 77 (antibody, human IgG1, kappa)
heavy: B1 heavy with K46E, Q62D, G63D, T65K
light: B1 light
notes: human Ig kappa; also called L1-4/HK1
B6: humanized antibody No. 78 (antibody, human IgG1, kappa)
heavy: B1 heavy with Q62D, G63D, T65K
light: B1 light
notes: human Ig kappa; also called L1-4/HK2
B7: humanized antibody No. 81 (antibody, human IgG1, kappa)
heavy: B1 heavy with K46E
light: B1 light with V48L, P80S
notes: human Ig kappa; also called L1-5/HA1
B8: humanized antibody No. 82 (antibody, human IgG1, kappa)
heavy: B1 heavy
light: B1 light with V48L, P80S
notes: human Ig kappa; also called L1-5/HA2
B9: humanized antibody No. 83 (antibody, human IgG1, kappa)
heavy: B1 heavy with V2I
light: B1 light with V48L, P80S
notes: human Ig kappa; also called L1-5/HA4
B10: humanized antibody No. 84 (antibody, human IgG1, kappa)
heavy: B1 heavy with K46E, Q62D, G63D, T65K
light: B1 light with V48L, P80S
notes: human Ig kappa; also called L1-5/HK1
B11: humanized antibody No. 85 (antibody, human IgG1, kappa)
heavy: B1 heavy with Q62D, G63D, T65K
light: B1 light with V48L, P80S
notes: human Ig kappa; also called L1-5/HK2

Columns and labels:
Assay in all cases: ELISA
SEAP-His = SEAP-His (UniProt P05187 23-511)
Chain of SEAP-His (P05187 23-511): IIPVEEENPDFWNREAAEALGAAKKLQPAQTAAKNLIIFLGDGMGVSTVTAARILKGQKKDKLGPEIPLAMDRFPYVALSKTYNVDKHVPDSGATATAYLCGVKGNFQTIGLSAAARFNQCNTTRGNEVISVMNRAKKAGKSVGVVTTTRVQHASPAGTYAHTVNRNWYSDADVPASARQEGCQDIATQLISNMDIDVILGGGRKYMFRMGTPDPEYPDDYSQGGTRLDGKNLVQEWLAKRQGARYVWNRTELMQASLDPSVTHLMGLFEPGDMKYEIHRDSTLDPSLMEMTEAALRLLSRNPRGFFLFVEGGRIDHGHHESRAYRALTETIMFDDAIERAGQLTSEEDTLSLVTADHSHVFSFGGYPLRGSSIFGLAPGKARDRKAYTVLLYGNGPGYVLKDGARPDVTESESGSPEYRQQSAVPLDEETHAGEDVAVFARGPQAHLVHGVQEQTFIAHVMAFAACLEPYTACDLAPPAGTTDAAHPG
Protocol: (§1) Each well of a 96-well plate (Nunc) was coated with a rabbit anti-6-His antibody (Bethyl Laboratories). Each well was […] After washing with 0.05% Tween 20/PBS (Nacalai Tesque) three times, the SEAP-His protein of human EphA1, EphA2, EphA3, EphA4, EphA5, EphA6, EphA7, EphA8, EphA10, EphB1, EphB2, EphB3, EphB4, or EphB6 was added (final concentration: 1 nM) to each well and incubated at room temperature for 1 hour. After washing three times, the humanized antibody was added to each well and incubated at room temperature for 1 hour. After washing three times, a horseradish peroxidase-labeled donkey […] antibody (Jackson ImmunoResearch Laboratories) was added thereto and incubated at room temperature for 1 hour. After washing three times, TMB Microwell Peroxidase Substrate System (Kirkegaard & Perry Laboratories (KPL)) was added to each well. After confirmation of moderate color development, an equal amount of a reaction stopping solution (1N H₂SO₄, Wako Pure Chemical Industries) was added to each well. The absorbance at 450 nm was read using a microplate reader (Thermo Fisher Scientific).

[1] = biological target: T1, human EphA1 extracellular …
Protocol: as §1

[2] = biological target: T5, human EphA5 extracellular region-SEAP-His protein (human, UniProt P54756 25-573)
T5 construct: extracellular domain; also called hEphA5-SEAP-His
T5 sequence (P54756 25-573): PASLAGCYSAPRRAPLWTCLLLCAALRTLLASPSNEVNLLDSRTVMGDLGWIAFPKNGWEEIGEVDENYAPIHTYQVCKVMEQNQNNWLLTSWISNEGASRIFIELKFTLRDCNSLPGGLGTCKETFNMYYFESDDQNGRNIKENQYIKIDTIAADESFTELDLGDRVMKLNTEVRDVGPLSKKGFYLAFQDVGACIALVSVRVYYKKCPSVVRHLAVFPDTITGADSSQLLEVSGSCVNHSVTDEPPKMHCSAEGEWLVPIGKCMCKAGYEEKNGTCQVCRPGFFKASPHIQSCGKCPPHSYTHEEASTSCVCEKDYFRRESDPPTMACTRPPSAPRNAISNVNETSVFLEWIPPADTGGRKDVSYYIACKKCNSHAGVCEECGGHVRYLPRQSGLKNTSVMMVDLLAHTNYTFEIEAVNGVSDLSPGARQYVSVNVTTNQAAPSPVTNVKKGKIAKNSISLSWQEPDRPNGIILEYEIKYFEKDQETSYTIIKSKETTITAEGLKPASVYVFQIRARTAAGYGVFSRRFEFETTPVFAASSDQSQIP
Protocol: as §1

[3] = biological target: T2, human EphA7 extracellular …
Protocol: as §1

[4] = biological target: T3, human EphA10 extracellular …
Protocol: as §1

[5] = biological target: T4, human EphB6 extracellular …
Protocol: as §1

| Binder | A450 as % of hEphA4-SEAP-His (SEAP-His) | A450 as % of hEphA4-SEAP-His [1] | A450 as % of hEphA4-SEAP-His [2] | A450 as % of hEphA4-SEAP-His [3] | A450 as % of hEphA4-SEAP-His [4] | A450 as % of hEphA4-SEAP-His [5] |
| --- | --- | --- | --- | --- | --- | --- |
| B1 | 5.5% | 5.1% | 5.3% | 4.8% | 4.7% | 5.2% |
| B2 | 5% | 4.6% | 4.8% | 4.7% | 4.6% | 4.7% |
| B3 | 6.1% | 5.7% | 5.6% | 5.3% | 5.4% | 5.6% |
| B4 | 4.4% | 4.7% | 4.7% | 4.7% | 4.4% | 4.7% |
| B5 | 4.7% | 4.5% | 4.4% | 4.3% | 4.5% | 4.5% |
| B6 | 5.3% | 6.6% | 5.1% | 5% | 5.2% | 5.2% |
| B7 | 5% | 4.4% | 4.9% | 5.2% | 4.8% | 5% |
| B8 | 5.9% | 5.4% | 6.5% | 5.4% | 5.4% | 5.5% |
| B9 | 6.5% | 5.7% | 5.8% | 5.5% | 5.6% | 5.8% |
| B10 | 5.1% | 5.2% | 5% | 4.8% | 5.1% | 4.9% |
| B11 | 5.3% | 5% | 5% | 4.8% | 5% | 5.2% |
